Test results as given in paper PMC3776355.

Biological target: Ero1-α(WT), recombinant (human) (UniProt Q96HE7)
Experiment: SPR

Chain of UniProt Q96HE7 (Q96HE7 24-468): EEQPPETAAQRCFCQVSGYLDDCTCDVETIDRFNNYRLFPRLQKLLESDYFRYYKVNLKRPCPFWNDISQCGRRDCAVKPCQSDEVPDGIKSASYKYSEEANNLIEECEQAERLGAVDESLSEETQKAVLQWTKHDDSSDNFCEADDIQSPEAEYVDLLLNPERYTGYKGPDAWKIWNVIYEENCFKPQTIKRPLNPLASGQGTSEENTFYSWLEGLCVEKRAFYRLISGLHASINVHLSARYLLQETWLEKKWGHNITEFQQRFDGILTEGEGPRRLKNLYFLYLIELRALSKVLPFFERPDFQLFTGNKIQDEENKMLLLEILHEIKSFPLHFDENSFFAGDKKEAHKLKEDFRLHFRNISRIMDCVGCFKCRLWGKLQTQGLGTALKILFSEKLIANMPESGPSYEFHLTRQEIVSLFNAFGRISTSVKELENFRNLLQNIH

- Kd: 1.7 µM
Substance: PDI, recombinant (wild type) (from UniProt P07237 18-508) (enzyme)
